Reference: patent US20230203200A1

B1: PRAME-004 targeting TCER® molecule with the recruiting domains of humanized BMA031(V10) (protein)
chain 1: QIQMTQSPSSLSASVGDRVTITCSATSSVSYMHWYQQKPGKAPKRWIYDTSKLASGVPSRFSGSGSGTDYTLTISSLQPEDAATYYCQQWSSNPLTFGGGTKVEIKGGGSGGGGKAGVTQTPRYLIKTRGQQVTLSCSPIPGHRSVSWYRQTPGQGLQFLFEYVHGEERNKGNFPGRFSGRQFSNSSSEMNISNLELGDSALYLCASSPWDSPNVQYFGPGTRLTVTEDLKNEPKSSDKTHTCPPCPAPPVAGPSVFLFPPKPKDTLMISRTPEVTCVVVDVSHEDPEVKFNWYVDGVEVHNAKTKPREEQYQSTYRVVSVLTVLHQDWLNGKEYKCKVSNKALPASIEKTISKAKGQPREPQVYTLPPCRDELTKNQVSLWCLVKGFYPSDIAVEWESNGQPENNYKTTPPVLDSDGSFFLYSKLTVDKSRWQQGNVFSCSVMHEALHNHYTQKSLSLSP
chain 2: QKEVEQNSGPLSVPEGAIASLNCTYSDRGSQSFFWYRQYSGKSPELIMSIYSNGDKKDGRFTAQLNKASQYVSLLIRDSQPSDSATYLCAAVIDNDQGGILTFGTGTRLTIIPNIQNGGGSGGGGEVQLVQSGAEVKKPGASVKVSCKASGYKFTSYVMHWVRQAPGQGLEWMGYINPYNDVTKYAEKFQGRVTLTSDTSTSTAYMELSSLRSEDTAVHYCARGSYYDYDGFVYWGQGTLVTVSSEPKSSDKTHTCPPCPAPPVAGPSVFLFPPKPKDTLMISRTPEVTCVVVDVSHEDPEVKFNWYVDGVEVHNAKTKPREEQYQSTYRVVSVLTVLHQDWLNGKEYKCKVSNKALPASIEKTISKAKGQPREPQVCTLPPSRDELTKNQVSLSCAVKGFYPSDIAVEWESNGQPENNYKTTPPVLDSDGSFFLVSKLTVDKSRWQQGNVFSCSVMHEALHNHYTQKSLSLSP
B2: PRAME-004 targeting TCER® molecule with the recruiting domains of humanized UCHT1(V17) (protein)
chain 1: QKEVEQNSGPLSVPEGAIASLNCTYSDRGSQSFFWYRQYSGKSPELIMSIYSNGDKEDGRFTAQLNKASQYVSLLIRDSQPSDSATYLCAAVIDNDQGGILTFGTGTRLTIIPNIQNGGGSGGGGDIQMTQSPSSLSASVGDRVTITCRASQDIRNYLNWYQQKPGKAPKLLIYYTSRLHSGVPSRFSGSGSGTDYTLTISSLQPEDIATYFCQQGQTLPWTFGQGTKVEIKEPKSSDKTHTCPPCPAPPVAGPSVFLFPPKPKDTLMISRTPEVTCVVVDVSHEDPEVKFNWYVDGVEVHNAKTKPREEQYQSTYRVVSVLTVLHQDWLNGKEYKCKVSNKALPASIEKTISKAKGQPREPQVYTLPPCRDELTKNQVSLWCLVKGFYPSDIAVEWESNGQPENNYKTTPPVLDSDGSFFLYSKLTVDKSRWQQGNVFSCSVMHEALHNHYTQKSLSLSPGK
chain 2: EVQLVQSGAEVKKPGASVKVSCKASGYSFTGYTMNWVRQAPGQGLEWMGLINPYKGVSTYAQKFQDRVTLTVDKSTSTAYMELSSLRSEDTAVYYCARSGYYGDSDWYFDVWGQGTLVTVSSGGGSGGGGKAGVTQTPRYLIKTRGQQVTLSCSPIPGHRAVSWYQQTPGQGLQFLFEYVHGEERNKGNFPGRFSGRQFSNSSSEMNISNLELGDSALYLCASSPWDSPNVQYFGPGTRLTVTEDLKNEPKSSDKTHTCPPCPAPPVAGPSVFLFPPKPKDTLMISRTPEVTCVVVDVSHEDPEVKFNWYVDGVEVHNAKTKPREEQYQSTYRVVSVLTVLHQDWLNGKEYKCKVSNKALPASIEKTISKAKGQPREPQVCTLPPSRDELTKNQVSLSCAVKGFYPSDIAVEWESNGQPENNYKTTPPVLDSDGSFFLVSKLTVDKSRWQQGNVFSCSVMHEALHNHYTQKSLSLSPGK

Columns and labels:
[1] = target: TCR alpha/beta on Jurkat cells (human); assay: flow cytometry on Jurkat cells (CD3+ and TCRab+), PE-labeled secondary reagent
[2] = target: CD3 (CD3ε/δ-complex) on T cells (human) (UniProt P07766); assay: as above
[3] = target: CD3 (CD3ε/δ-complex) on T cells (human) (UniProt P07766); assay: flow cytometry on Jurkat cells (CD3+, TCRab+), bound TCER stained with a PE-labeled secondary reagent

Sequence of UniProt P07766 (P07766 23-207, stated change not applied, chain 1 of 2): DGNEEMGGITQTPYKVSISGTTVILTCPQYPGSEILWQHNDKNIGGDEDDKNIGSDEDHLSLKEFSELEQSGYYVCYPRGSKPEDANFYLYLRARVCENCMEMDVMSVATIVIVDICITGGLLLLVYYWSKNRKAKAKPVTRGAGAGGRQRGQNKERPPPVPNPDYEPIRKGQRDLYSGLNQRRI
Sequence of UniProt P07766 (P04234 22-171, stated change not applied, chain 2 of 2, further chain): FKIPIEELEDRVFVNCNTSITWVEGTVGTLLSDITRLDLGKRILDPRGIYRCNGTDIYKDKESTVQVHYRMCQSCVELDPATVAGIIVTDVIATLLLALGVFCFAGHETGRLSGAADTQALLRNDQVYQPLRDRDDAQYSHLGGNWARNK

Binder	fold weaker binding than the UCHT1-based TCER®-molecule [1] [fold]	EC50 [2] [nM]	EC50 (read off the curve) [3] [nM]
B1	50 to 100	–	–
B2	–	2 to 3	2
